# According to the supplement of paper PMC7877785:
# ± gives the uncertainty stated by the source.
# Experiment: self-splicing fitness, log relative to wild type (ln ratio); higher = more splicing; Tetrahymena group I intron in knt gene, E. coli kanamycin selection, DiMSum; sequences stand for … in CUCUCU…GGAGGGAAAAGUUAUCAGGCAUGCACCUGGUAGCUAGUCUUUAAACCAAUAGAUUGCAUCGGUUUAAAAGGCAAGACCGUCAAAUUGCGGGAAAGGGGUCAACAGCCGUUCAGUACCAAGUCUCAGGGGAAACUUUGAGAUGGCCUUGCAAAGGGUAUGGUAAUAAGCUGACGGACAUGGUCCUAACCACGCAGCCAAGUCCUAAGUCAACAGAUCUUCUGUUGAUAUGGAUGCAGUUCACAGACUAAAUGUCGGUCGGGGAAGAUGUAUUCUUCUCAUAAGAUAUAGUCGGACCUCUCCUUAAUGGGAGCUAGCGGAUGAAGUGAUGCAACACUGGAGCCGCUGGGAACUAAUUUGUAUGCGAAAGUAUAUUGAUUAGUUUUGGAGUACUCGUGGUCG
# Procedure, shortened: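 The eight P1ex-region nucleotides of an intron in the knt kanamycin-resistance gene on pET-22b(+) were all randomised and the library put into E. coli BL21(DE3). Six replicate transformations were grown overnight at 37°C or 30°C on LB agar with or without 25 μg/mL kanamycin, together with 100 μg/mL carbenicillin, 50 μM IPTG and 0.2% rhamnose. Colonies were pooled and amplicon-sequenced on an Illumina HiSeq 2500. Fitness from DiMSum is the error-weighted combination of wild-type-normalised replicate fold changes, kanamycin over none.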
Sequence,self-splicing fitness (ln) (30 °C),self-splicing fitness (ln) (37 °C)
AAUAAGCAAUAUUACGCUAC,-3.62 ± 0.34,-1.82 ± 0.23
AAUUAGCAAUAUUACGAUUC,-2.85 ± 0.24,-1.13 ± 0.34
CACGAGCAAUAUUACGCCUU,-2.3 ± 0.2,-2.76 ± 0.4
UAUCAGCAAUAUUACGGCGG,-0.918 ± 0.086,0.373 ± 0.093
GUCUAGCAAUAUUACGUGGA,-2.12 ± 0.23,-2.69 ± 0.24
AUAGAGCAAUAUUACGAUGG,-2.76 ± 0.21,-2.02 ± 0.31
AAUAAGCAAUAUUACGGACU,-0.768 ± 0.071,0.349 ± 0.1
GACUAGCAAUAUUACGUCAU,-2.73 ± 0.17,-1.1 ± 0.17
GAUGAGCAAUAUUACGGACA,-2.22 ± 0.45,-3.08 ± 0.47
AGAUAGCAAUAUUACGGCUA,0.0313 ± 0.1,0.162 ± 0.098
CCACAGCAAUAUUACGGGUG,-2.04 ± 0.05,-0.716 ± 0.059
AAGCAGCAAUAUUACGGCUA,-0.14 ± 0.066,0.0975 ± 0.086
UCUUAGCAAUAUUACGGUAA,-2.62 ± 0.23,-1.7 ± 0.32
GUGAAGCAAUAUUACGCUAC,-3.39 ± 0.27,-1.95 ± 0.31
AUUAAGCAAUAUUACGAAGU,-2.77 ± 0.22,-0.565 ± 0.21
UCCAAGCAAUAUUACGCUGG,-4.72 ± 0.28,-1.81 ± 0.18
AAAGAGCAAUAUUACGGGGC,-4.4 ± 0.42,-2.79 ± 0.36
UUGAAGCAAUAUUACGACUG,-0.106 ± 0.073,0.183 ± 0.097
UAUAAGCAAUAUUACGACCU,0.317 ± 0.2,-0.146 ± 0.23
UUGUAGCAAUAUUACGUCAA,-0.947 ± 0.16,-0.538 ± 0.16
CACGAGCAAUAUUACGUGCA,-3.55 ± 0.18,-3.24 ± 0.23

Sequence,self-splicing fitness (ln) (30 °C),self-splicing fitness (ln) (37 °C)
CCCUAGCAAUAUUACGUAAG,-3.8 ± 0.18,-2.04 ± 0.17
AGUUAGCAAUAUUACGUACA,-1.06 ± 0.09,-0.266 ± 0.12
UGAUAGCAAUAUUACGACAC,–,-2.22 ± 0.45
AAAUAGCAAUAUUACGUAGC,-3.97 ± 0.33,-1.9 ± 0.31
GGUUAGCAAUAUUACGUGGC,-3.21 ± 0.34,-1.64 ± 0.19
GUGUAGCAAUAUUACGGCGC,-2.06 ± 0.44,-0.968 ± 0.32
AUGUAGCAAUAUUACGAGAC,-3.13 ± 0.31,-2.09 ± 0.2
GACGAGCAAUAUUACGGUCC,-3.83 ± 0.25,-1.74 ± 0.23
CCGUAGCAAUAUUACGGUGA,-3.66 ± 0.26,-2.45 ± 0.25
AAGGAGCAAUAUUACGGGGC,-3.81 ± 0.22,-2.34 ± 0.16
UGAGAGCAAUAUUACGUAUG,-1.55 ± 0.13,-1.66 ± 0.22
CAGGAGCAAUAUUACGCCAG,-2.75 ± 0.32,–
GGCGAGCAAUAUUACGCACU,-2.83 ± 0.34,-1.07 ± 0.28
GGCGAGCAAUAUUACGUUAU,-3.17 ± 0.17,-1.3 ± 0.16
UGUAAGCAAUAUUACGUCAC,-2.9 ± 0.19,-2.28 ± 0.25
UUCCAGCAAUAUUACGGAUG,-0.779 ± 0.058,0.293 ± 0.076
CACUAGCAAUAUUACGGGUU,-2.05 ± 0.076,-1.28 ± 0.095
UGUGAGCAAUAUUACGAUGU,-3.05 ± 0.18,-2.08 ± 0.24
AUGCAGCAAUAUUACGGCGC,-0.143 ± 0.17,0.107 ± 0.18
CGUUAGCAAUAUUACGGCUC,-1.75 ± 0.33,0.277 ± 0.22
CACUAGCAAUAUUACGUCCC,-2.5 ± 0.34,-2.38 ± 0.33

Sequence,self-splicing fitness (ln) (30 °C),self-splicing fitness (ln) (37 °C)
AAGCAGCAAUAUUACGAUCU,-0.0506 ± 0.075,0.801 ± 0.09
ACCUAGCAAUAUUACGGCGC,-0.607 ± 0.097,0.63 ± 0.13
ACCUAGCAAUAUUACGUCUU,-0.806 ± 0.064,-0.667 ± 0.075
GCUCAGCAAUAUUACGAUGA,-2.09 ± 0.2,-2.26 ± 0.31
UAAGAGCAAUAUUACGGGCU,–,-2.53 ± 0.32
UACAAGCAAUAUUACGAAAA,-1.94 ± 0.19,-1.22 ± 0.15
UGUUAGCAAUAUUACGAUAG,-2.07 ± 0.26,0.173 ± 0.17
AACCAGCAAUAUUACGGGAG,-0.751 ± 0.036,-0.132 ± 0.051
CUGGAGCAAUAUUACGUCCU,-3.17 ± 0.16,-2.56 ± 0.22
CCGUAGCAAUAUUACGGCAU,-3.15 ± 0.23,-2.85 ± 0.25
UAAUAGCAAUAUUACGAGGA,-3.68 ± 0.25,-2.62 ± 0.16
CGGGAGCAAUAUUACGUAUA,-3.33 ± 0.33,-2.4 ± 0.25
GACUAGCAAUAUUACGUUGG,-2.85 ± 0.22,-2.42 ± 0.39
UGUAAGCAAUAUUACGCGCG,-0.498 ± 0.11,-0.329 ± 0.15
UGGCAGCAAUAUUACGAGCA,-0.315 ± 0.098,-0.218 ± 0.12
CUACAGCAAUAUUACGGGAU,-2.74 ± 0.15,-2.99 ± 0.27
GAUCAGCAAUAUUACGAGGC,–,-1.92 ± 0.23
GAUGAGCAAUAUUACGGAAU,-3.1 ± 0.23,-2.66 ± 0.41
CCUAAGCAAUAUUACGAGGC,-3.32 ± 0.15,-3.61 ± 0.22
